Data taken from patent publication US20240117018A1.

Assays:
Assay in all cases: cell-based or functional assay
[1] = molecular target: Env of HIV-1 pseudovirus 191084 B7-19 (HIV-1)
[2] = molecular target: Env of HIV-1 pseudovirus 246F C1G (HIV-1)
[3] = molecular target: Env of HIV-1 pseudovirus 249M B10 (HIV-1)
[4] = molecular target: Env of HIV-1 pseudovirus BF1266.431a (HIV-1)
[5] = molecular target: Env of HIV-1 pseudovirus CAP45.2.00.G3 (HIV-1)
[6] = molecular target: Env of HIV-1 pseudovirus CNE19 (HIV-1)
[7] = molecular target: Env of HIV-1 pseudovirus CNE21 (HIV-1)
[8] = molecular target: Env of HIV-1 pseudovirus CNE53 (HIV-1)
[9] = molecular target: Env of HIV-1 pseudovirus Ce1086_B2 (HIV-1)
[10] = molecular target: Env of HIV-1 pseudovirus Ce2060_G9 (HIV-1)
[11] = molecular target: Env of HIV-1 pseudovirus Ce704809221_1B3 (HIV-1)
[12] = molecular target: Env of HIV-1 pseudovirus HIV-16845-2.22 (HIV-1)
[13] = molecular target: Env of HIV-1 pseudovirus MS208.A1 (HIV-1)
[14] = molecular target: Env of HIV-1 pseudovirus T250-4 (HIV-1)
[15] = molecular target: Env of HIV-1 pseudovirus ZM135M.PL10a (HIV-1)
[16] = molecular target: Env of HIV-1 pseudovirus ZM197M.PB7 (HIV-1)
[17] = molecular target: HIV-1 Env pseudovirus 1012_11_TC21_3257 (HIV-1)
[18] = molecular target: HIV-1 Env pseudovirus 246F C1G (HIV-1)
[19] = molecular target: HIV-1 Env pseudovirus 249M B10 (HIV-1)
[20] = molecular target: HIV-1 Env pseudovirus AC10.0.29 (HIV-1)
[21] = molecular target: HIV-1 Env pseudovirus CNE53 (HIV-1)
[22] = molecular target: HIV-1 Env pseudovirus Ce0682_E4 (HIV-1)
[23] = molecular target: HIV-1 Env pseudovirus Ce1086_B2 (HIV-1)
[24] = molecular target: HIV-1 Env pseudovirus Du156.12 (HIV-1)
[25] = molecular target: HIV-1 Env pseudovirus HIV-0013095-2.11 (HIV-1)
[26] = molecular target: HIV-1 Env pseudovirus HIV-16055-2.3 (HIV-1)
[27] = molecular target: HIV-1 Env pseudovirus Q259.d2.17 (HIV-1)
[28] = molecular target: HIV-1 Env pseudovirus Q842.d12 (HIV-1)
[29] = molecular target: HIV-1 Env pseudovirus QH0692.42 (HIV-1)
[30] = molecular target: HIV-1 Env pseudovirus REJO4541.67 (HIV-1)
[31] = molecular target: HIV-1 Env pseudovirus WEAU_d15_410_787 (HIV-1)
[32] = molecular target: HIV-1 Env pseudovirus ZM249M.PL1 (HIV-1)

10-1074 (antibody)
IC50 [1]: 0.032 µg/mL
IC80 [1]: 0.128 µg/mL
IC50 [2]: 0.022 µg/mL
IC80 [2]: 0.111 µg/mL
IC50 [3]: > 50 µg/mL
IC80 [3]: > 50 µg/mL
IC50 [4]: > 50 µg/mL
IC80 [4]: > 50 µg/mL
IC50 [5]: > 50 µg/mL
IC80 [5]: > 50 µg/mL
IC50 [6]: 50 µg/mL
IC80 [6]: > 50 µg/mL
IC50 [7]: 0.067 µg/mL
IC80 [7]: 0.181 µg/mL
IC50 [8]: 0.039 µg/mL
IC80 [8]: 0.141 µg/mL
IC50 [9]: > 50 µg/mL
IC80 [9]: > 50 µg/mL
IC50 [10]: > 50 µg/mL
IC80 [10]: > 50 µg/mL
IC50 [11]: 0.139 µg/mL
IC80 [11]: 0.696 µg/mL
IC50 [12]: 1.17 µg/mL
IC80 [12]: 5.83 µg/mL
IC50 [13]: > 50 µg/mL
IC80 [13]: > 50 µg/mL
IC50 [14]: < 0.001 µg/mL
IC80 [14]: 0.005 µg/mL
IC50 [15]: 0.069 µg/mL
IC80 [15]: 0.367 µg/mL
IC50 [16]: > 50 µg/mL
IC80 [16]: > 50 µg/mL

PG16 (antibody)
IC50 [1]: 0.024 µg/mL
IC80 [1]: 0.238 µg/mL
IC50 [2]: > 50 µg/mL
IC80 [2]: > 50 µg/mL
IC50 [3]: 0.026 µg/mL
IC80 [3]: 1.25 µg/mL
IC50 [4]: 0.003 µg/mL
IC80 [4]: 0.009 µg/mL
IC50 [5]: 0.001 µg/mL
IC80 [5]: 0.003 µg/mL
IC50 [6]: 0.024 µg/mL
IC80 [6]: 3.07 µg/mL
IC50 [7]: 0.007 µg/mL
IC80 [7]: 0.026 µg/mL
IC50 [8]: > 50 µg/mL
IC80 [8]: > 50 µg/mL
IC50 [9]: > 50 µg/mL
IC80 [9]: > 50 µg/mL
IC50 [10]: 0.075 µg/mL
IC80 [10]: 1.71 µg/mL
IC50 [11]: 0.021 µg/mL
IC80 [11]: 0.116 µg/mL
IC50 [12]: 3.13 µg/mL
IC80 [12]: > 50 µg/mL
IC50 [13]: 0.002 µg/mL
IC80 [13]: 0.004 µg/mL
IC50 [14]: 0.002 µg/mL
IC80 [14]: 0.005 µg/mL
IC50 [15]: > 50 µg/mL
IC80 [15]: > 50 µg/mL
IC50 [16]: 1.5 µg/mL
IC80 [16]: 22.8 µg/mL

N49P7.2 (antibody)
IC50 [17]: 0.06 µg/mL
IC80 [17]: 0.285 µg/mL
MPI [17]: 100
IC50 [18]: 0.049 µg/mL
IC80 [18]: 0.192 µg/mL
MPI [18]: 100
IC50 [19]: 0.095 µg/mL
IC80 [19]: 0.349 µg/mL
MPI [19]: 100
IC50 [20]: 44.2 µg/mL
IC80 [20]: > 50 µg/mL
MPI [20]: 53
IC50 [21]: 0.1 µg/mL
IC80 [21]: 0.277 µg/mL
MPI [21]: 100
IC50 [22]: 0.067 µg/mL
IC80 [22]: 0.233 µg/mL
MPI [22]: 100
IC50 [23]: 0.166 µg/mL
IC80 [23]: 1 µg/mL
MPI [23]: 100
IC50 [24]: 0.058 µg/mL
IC80 [24]: 0.21 µg/mL
MPI [24]: 100
IC50 [25]: 0.183 µg/mL
IC80 [25]: 0.931 µg/mL
MPI [25]: 97
IC50 [26]: 0.204 µg/mL
IC80 [26]: 0.721 µg/mL
MPI [26]: 100
IC50 [27]: 38.5 µg/mL
IC80 [27]: > 50 µg/mL
MPI [27]: 54
IC50 [28]: 0.045 µg/mL
IC80 [28]: 0.2 µg/mL
MPI [28]: 100
IC50 [29]: 1.26 µg/mL
IC80 [29]: 4.42 µg/mL
MPI [29]: 100
IC50 [30]: 0.018 µg/mL
IC80 [30]: 0.08 µg/mL
MPI [30]: 100
IC50 [31]: 0.052 µg/mL
IC80 [31]: 0.15 µg/mL
MPI [31]: 100
IC50 [32]: 0.073 µg/mL
IC80 [32]: 0.256 µg/mL
MPI [32]: 100

N49P18.1 (antibody)
IC50 [17]: 16.1 µg/mL
IC80 [17]: > 50 µg/mL
MPI [17]: 79
IC50 [18]: 3.4 µg/mL
IC80 [18]: 20.2 µg/mL
MPI [18]: 97
IC50 [19]: 5.71 µg/mL
IC80 [19]: 23.1 µg/mL
MPI [19]: 94
IC50 [20]: 20 µg/mL
IC80 [20]: > 50 µg/mL
MPI [20]: 71
IC50 [21]: 4.08 µg/mL
IC80 [21]: 21.8 µg/mL
MPI [21]: 97
IC50 [22]: 3.95 µg/mL
IC80 [22]: 21.1 µg/mL
MPI [22]: 96
IC50 [23]: 8.98 µg/mL
IC80 [23]: 48 µg/mL
MPI [23]: 92
IC50 [24]: 1.88 µg/mL
IC80 [24]: 6.81 µg/mL
MPI [24]: 100
IC50 [25]: > 50 µg/mL
IC80 [25]: > 50 µg/mL
MPI [25]: 48
IC50 [26]: 8.04 µg/mL
IC80 [26]: 22.6 µg/mL
MPI [26]: 97
IC50 [27]: > 50 µg/mL
IC80 [27]: > 50 µg/mL
MPI [27]: 37
IC50 [28]: 3.04 µg/mL
IC80 [28]: 8.13 µg/mL
MPI [28]: 100
IC50 [29]: > 50 µg/mL
IC80 [29]: > 50 µg/mL
MPI [29]: 43
IC50 [30]: 4.08 µg/mL
IC80 [30]: 30.1 µg/mL
MPI [30]: 89
IC50 [31]: 4.27 µg/mL
IC80 [31]: 15.5 µg/mL
MPI [31]: 98
IC50 [32]: 4.16 µg/mL
IC80 [32]: 19.8 µg/mL
MPI [32]: 98
